The source of these data is US20030131383A1 (INTERLINK BIOTECHNOLOGIES, published 2003).

No end group written: not given here.

Holding throughout (assay): cell-based or functional assay
In test [1] the target is Chymotrypsin.
Test [2] concerns the target Carboxypeptidase.
The target of test [3] is T1, Papain (UniProt P00784 134-345).
T1 sequence (looked up): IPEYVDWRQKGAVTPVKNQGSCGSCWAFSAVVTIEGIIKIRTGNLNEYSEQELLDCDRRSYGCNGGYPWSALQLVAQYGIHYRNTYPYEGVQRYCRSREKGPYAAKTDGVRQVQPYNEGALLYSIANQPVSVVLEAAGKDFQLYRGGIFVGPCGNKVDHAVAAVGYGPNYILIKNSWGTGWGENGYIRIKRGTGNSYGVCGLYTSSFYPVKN

RRWPWWPWKWPLI-NH2 [Rev4 (reverse indolicidin), C-terminal amide form]: in test [1], the “% Inhibition of Proteolysis by Rev4 at 2.5 µg/ml” value (“% Inhibition … at 2.5 µg/ml” below) was 16%, the “% Inhibition of Proteolysis by Rev4 at 5 µg/ml” value (“% Inhibition … at 5 µg/ml” for short) was 42%, the “% Inhibition of Proteolysis by Rev4 at 10 µg/ml” value (“% Inhibition … at 10 µg/ml” below) worked out at 75% and the “% Inhibition of Proteolysis by Rev4 at 20 µg/ml” value (“% Inhibition … at 20 µg/ml” below) worked out at 97%. Further, in test [2], the “% Inhibition … at 2.5 µg/ml” value is 58%, the “% Inhibition … at 5 µg/ml” value was determined as 92%, the “% Inhibition … at 10 µg/ml” value came to 100% and the “% Inhibition … at 20 µg/ml” value is 100%. In test [3], the “% Inhibition … at 2.5 µg/ml” value was 29%, the “% Inhibition … at 5 µg/ml” value was determined as 72%, the “% Inhibition … at 10 µg/ml” value came to 93% and the “% Inhibition … at 20 µg/ml” value stood at 99%.
